According to IntAct's records for PubMed 7759517:

B1: Dual specificity mitogen-activated protein kinase kinase 5 (Homo sapiens), Q13163 (parent)
chain: MLWLALGPFPAMENQVLVIRIKIPNSGAVDWTVHSGPQLLFRDVLDVIGQVLPEATTTAFEYEDEDGDRITVRSDEEMKAMLSYYYSTVMEQQVNGQLIEPLQIFPRACKPPGERNIHGLKVNTRAGPSQHSSPAVSDSLPSNSLKKSSAELKKILANGQMNEQDIRYRDTLGHGNGGTVYKAYHVPSGKILAVKVILLDITLELQKQIMSELEILYKCDSSYIIGFYGAFFVENRISICTEFMDGGSLDVYRKMPEHVLGRIAVAVVKGLTYLWSLKILHRDVKPSNMLVNTRGQVKLCDFGVSTQLVNSIAKTYVGTNAYMAPERISGEQYGIHSDVWSLGISFMELALGRFPYPQIQKNQGSLMPLQLLQCIVDEDSPVLPVGEFSEPFVHFITQCMRKQPKERPAPEELMGHPFIVQFNDGNAAVVSMWVCRALEERRSQQGPP

Variants of: B1
Conditions: with mk07_human MAPK7, Q13164
Chain of mk07_human MAPK7, Q13164 (Q13164 whole entry, looked up): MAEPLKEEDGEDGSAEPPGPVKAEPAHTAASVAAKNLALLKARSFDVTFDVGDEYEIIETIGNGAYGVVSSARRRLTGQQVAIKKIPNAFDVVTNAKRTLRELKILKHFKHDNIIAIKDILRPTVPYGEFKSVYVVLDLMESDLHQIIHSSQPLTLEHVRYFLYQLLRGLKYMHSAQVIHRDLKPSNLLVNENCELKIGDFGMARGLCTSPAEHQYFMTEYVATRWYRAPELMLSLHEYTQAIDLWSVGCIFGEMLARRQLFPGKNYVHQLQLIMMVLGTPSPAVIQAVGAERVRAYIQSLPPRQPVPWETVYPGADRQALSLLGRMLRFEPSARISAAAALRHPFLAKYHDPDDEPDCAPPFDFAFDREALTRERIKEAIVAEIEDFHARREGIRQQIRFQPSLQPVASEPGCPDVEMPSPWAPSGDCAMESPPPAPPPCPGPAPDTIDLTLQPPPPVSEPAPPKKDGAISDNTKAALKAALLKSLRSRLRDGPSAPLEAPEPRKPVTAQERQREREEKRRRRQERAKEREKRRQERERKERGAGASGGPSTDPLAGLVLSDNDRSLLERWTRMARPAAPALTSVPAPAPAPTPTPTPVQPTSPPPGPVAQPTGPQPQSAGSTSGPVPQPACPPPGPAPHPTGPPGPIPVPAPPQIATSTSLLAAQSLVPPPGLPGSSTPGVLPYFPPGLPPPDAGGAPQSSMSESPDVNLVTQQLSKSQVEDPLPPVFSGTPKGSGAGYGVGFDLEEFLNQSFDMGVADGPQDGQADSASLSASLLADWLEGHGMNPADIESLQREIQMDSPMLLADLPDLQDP

| Variant | effect of a mutation on the interaction |
| --- | --- |
| MLWLALGPFPAMENQVLVIRIKIPNSGAVDWTVHSGPQLLFRDVLDVIGQVLPEATTTAFEYEDEDGDRITVRSDEEMKAMLSYYYSTVMEQQVNGQLIEPLQIFPRACKPPGERNIHGLKVNTRAGPSQHSSPAVSDSLPSNSLKKSSAELKKILANGQMNEQDIRYRDTLGHGNGGTVYKAYHVPSGKILAVKVILLDITLELQKQIMSELEILYKCDSSYIIGFYGAFFVENRISICTEFMDGGSLDVYRKMPEHVLGRIAVAVVKGLTYLWSLKILHRDVKPSNMLVNTRGQVKLCDFGVSTQLVNAIAKAYVGTNAYMAPERISGEQYGIHSDVWSLGISFMELALGRFPYPQIQKNQGSLMPLQLLQCIVDEDSPVLPVGEFSEPFVHFITQCMRKQPKERPAPEELMGHPFIVQFNDGNAAVVSMWVCRALEERRSQQGPP [S311A;T315A] | increasing interaction |

Variants of: B1
Conditions: with mk07_human MAPK7, Q13164
Remark: another data set of the same source

| Variant | effect of a mutation on the interaction |
| --- | --- |
| MLWLALGPFPAMENQVLVIRIKIPNSGAVDWTVHSGPQLLFRDVLDVIGQVLPEATTTAFEYEDEDGDRITVRSDEEMKAMLSYYYSTVMEQQVNGQLIEPLQIFPRACKPPGERNIHGLKVNTRAGPSQHSSPAVSDSLPSNSLKKSSAELKKILANGQMNEQDIRYRDTLGHGNGGTVYKAYHVPSGKILAVMVILLDITLELQKQIMSELEILYKCDSSYIIGFYGAFFVENRISICTEFMDGGSLDVYRKMPEHVLGRIAVAVVKGLTYLWSLKILHRDVKPSNMLVNTRGQVKLCDFGVSTQLVNSIAKTYVGTNAYMAPERISGEQYGIHSDVWSLGISFMELALGRFPYPQIQKNQGSLMPLQLLQCIVDEDSPVLPVGEFSEPFVHFITQCMRKQPKERPAPEELMGHPFIVQFNDGNAAVVSMWVCRALEERRSQQGPP [K195M] | increasing interaction |
